This is an account of results in the Human Domainome abundance scans (Beltran et al. 2025).

Sequences and labels used below:
B1: Tudor domain-containing protein 3, residues 554 to 611; numbered along this chain, Q9H7E2 (parent)
chain: KMWKPGDECFALYWEDNKFYRAEVEALHSSGMTAVVKFIDYGNYEEVLLSNIKPIQTE

± gives the uncertainty stated by the source.

Variants of B1 are the subject of this data set. The data set can be described thus: abundance fitness (aPCA) (normalised: wild type 0, dead -1); higher = more abundant; growth selection in yeast, the domain comes from the species named. Conditions: Homo sapiens.
Consider V36L, for which the abundance fitness is -0.571 ± 0.067. The figure for V36I is -0.295 ± 0.089; for V36F it is -0.964 ± 0.2. The figure for N51M is -0.364 ± 0.075; for N51C it is -0.205 ± 0.11; for N51D it is -0.097 ± 0.1.

For the variant N51K, the abundance fitness was -0.418 ± 0.076. The figure for N51R is -0.485 ± 0.06; for N51A it is -0.308 ± 0.065. S29Q: the abundance fitness is -0.11 ± 0.1.

For the variant S29M, the abundance fitness was -0.009 ± 0.084. In the case of S29F, the abundance fitness was -0.186 ± 0.1.

For the variant V24Y, the abundance fitness is -0.814 ± 0.15. The figure for V24S is -0.751 ± 0.075; for K1V it is -0.225 ± 0.13. K1A: the abundance fitness is -0.218 ± 0.14. In the case of K1S, the abundance fitness was -0.283 ± 0.14. The figure for Y13F is 0.065 ± 0.11; for V47D it is -0.729 ± 0.36; for V47G it is -0.873 ± 0.068. For V47H, the abundance fitness was -0.733 ± 0.17. The figure for L48K is -0.1 ± 0.081; for L48F it is -0.224 ± 0.11; for W14F it is -0.136 ± 0.084.

On to W14P, for which the abundance fitness stood at 0.041 ± 0.11. The figure for T33M is -0.246 ± 0.11; for T33C it is -0.14 ± 0.067; for A34K it is -0.646 ± 0.18. Turning to A34T, the abundance fitness is -0.948 ± 0.17.

Take A34V: the abundance fitness is -0.078 ± 0.065. With I55R the figure was -0.068 ± 0.055.

As for I55T, the abundance fitness was -0.18 ± 0.097.

Regarding I55A, the abundance fitness is -0.028 ± 0.079. In the case of I55F, the abundance fitness was -0.1 ± 0.13. On to W3Y, for which the abundance fitness was -0.312 ± 0.12. With W3N the figure was -0.737 ± 0.28; with W3P, -0.314 ± 0.11.

As for W3R, the abundance fitness was -1.01 ± 0.11. On to W3T, for which the abundance fitness was -0.615 ± 0.1.

As for W3G, the abundance fitness was -0.856 ± 0.081.

With W3M, the abundance fitness is -0.079 ± 0.11. The figure for L12N is -0.486 ± 0.17. As to L12A, the abundance fitness is -0.525 ± 0.083. For L12V, the abundance fitness was -0.368 ± 0.071.

For the variant E46K, the abundance fitness is -0.205 ± 0.15.

In the case of E46C, the abundance fitness was -0.279 ± 0.099. Turning to F10A, the abundance fitness was -0.178 ± 0.072. With D7W the figure was -0.882 ± 0.093; with D7F, -0.677 ± 0.15.

For the variant D7Y, the abundance fitness is -0.712 ± 0.12. D7I: the abundance fitness was -0.826 ± 0.17. The figure for D7G is -0.899 ± 0.093; for K37N it is -0.567 ± 0.17. With K37C the figure was -0.612 ± 0.15; with A26L, -0.041 ± 0.089.

For the variant A26Q, the abundance fitness was -0.322 ± 0.2. Take L49M: the abundance fitness is -0.032 ± 0.081. For L49R, the abundance fitness is -0.708 ± 0.069. Take T57Y: the abundance fitness was -0.072 ± 0.11. The figure for T57W is -0.272 ± 0.096.

Turning to T57H, the abundance fitness came out at 0.06 ± 0.12. Turning to T57V, the abundance fitness was 0.04 ± 0.063. Consider I39Q, for which the abundance fitness is -0.082 ± 0.093. On to I39G, for which the abundance fitness is -0.361 ± 0.058. For the variant I39K, the abundance fitness came out at 0.044 ± 0.097. With Q56P the figure was 0.015 ± 0.074; with Q56M, -0.037 ± 0.097.

For Q56S, the abundance fitness is -0.054 ± 0.064.

As to Q56I, the abundance fitness is -0.038 ± 0.092. Q56G: the abundance fitness was determined as 0.031 ± 0.056. The figure for R21S is -0.622 ± 0.069; for E15C it is -0.21 ± 0.098. On to E15Q, for which the abundance fitness is -0.111 ± 0.11.

In the case of I52M, the abundance fitness stood at 0.028 ± 0.12.

As for I52R, the abundance fitness is -0.938 ± 0.079. In the case of E23Q, the abundance fitness is -0.103 ± 0.11.

Regarding E23C, the abundance fitness is -0.034 ± 0.079.

In the case of K18T, the abundance fitness is -0.087 ± 0.087. In the case of K18E, the abundance fitness was -0.179 ± 0.087. With K18M the figure was -0.033 ± 0.084.

For the variant K18V, the abundance fitness was -0.255 ± 0.069.

On to N43V, for which the abundance fitness turned out to be 0.035 ± 0.057. The figure for F38C is -0.935 ± 0.13; for F38Y it is -0.479 ± 0.13. The figure for H28A is 0.024 ± 0.075. The figure for K4T is -0.059 ± 0.077.

Take K4L: the abundance fitness was -0.287 ± 0.065. The figure for K4C is -0.169 ± 0.084; for S30C it is -0.109 ± 0.089; for S30P it is -0.331 ± 0.094. With S30W the figure was -0.462 ± 0.097. The figure for S30T is -0.119 ± 0.071; for S30Q it is -0.254 ± 0.11; for S30N it is -0.04 ± 0.099. Consider Y20K, for which the abundance fitness was determined as 0.072 ± 0.091. The figure for L27I is -0.072 ± 0.11; for L27N it is -0.879 ± 0.18; for G31D it is -0.198 ± 0.083. Turning to G31F, the abundance fitness is -0.558 ± 0.12.

With G31K, the abundance fitness is -0.148 ± 0.1. The figure for G31P is -0.48 ± 0.086. With D16F the figure was -0.76 ± 0.25.

In the case of D16L, the abundance fitness was -0.588 ± 0.085. In the case of D16C, the abundance fitness was -0.961 ± 0.14.

F19T: the abundance fitness was -0.747 ± 0.12. With F19S the figure was -0.703 ± 0.086. With F19P the figure was -0.81 ± 0.13; with F19D, -0.881 ± 0.15; with F19V, -0.756 ± 0.082. Regarding F19L, the abundance fitness was -0.472 ± 0.08. The figure for F19K is -0.85 ± 0.16; for N17W it is -0.716 ± 0.13.

For the variant N17Q, the abundance fitness was -0.1 ± 0.092. The figure for N17Y is -0.604 ± 0.2; for V35M it is -0.079 ± 0.083. With V35Q the figure was 0.058 ± 0.081; with V35D, -0.426 ± 0.12.

Take G42V: the abundance fitness is -0.926 ± 0.11. The figure for G42K is -0.407 ± 0.14; for G42C it is -0.315 ± 0.14. E25D: the abundance fitness was determined as 0.027 ± 0.14.

For the variant E25R, the abundance fitness is -0.019 ± 0.054. With Y41E, the abundance fitness stood at 0.042 ± 0.087.

P5L: the abundance fitness was -0.261 ± 0.081. The figure for P5G is -0.61 ± 0.064; for P5V it is -0.034 ± 0.07. As to M32Y, the abundance fitness turned out to be 0.195 ± 0.12. Take M32E: the abundance fitness was determined as 0.009 ± 0.083.

On to G6T, for which the abundance fitness is -0.919 ± 0.13.

Regarding G6Y, the abundance fitness is -0.971 ± 0.25. G6I: the abundance fitness was -0.941 ± 0.2. The figure for G6L is -0.836 ± 0.083; for K53Y it is -0.214 ± 0.087. For K53T, the abundance fitness is -0.109 ± 0.096.

For K53Q, the abundance fitness was -0.12 ± 0.1. Turning to S50Q, the abundance fitness was -0.115 ± 0.11.

For S50Y, the abundance fitness was -0.437 ± 0.097. The figure for Y44C is 0.097 ± 0.079. The figure for Y44T is 0.039 ± 0.081; for P54L it is -0.36 ± 0.065; for P54C it is -0.429 ± 0.093. The figure for P54R is -0.17 ± 0.054; for P54E it is -0.006 ± 0.11; for E45W it is -0.788 ± 0.089. E45F: the abundance fitness is -0.768 ± 0.17. In the case of E45K, the abundance fitness is -0.43 ± 0.1. Regarding E45Q, the abundance fitness was -0.13 ± 0.096. With E45H, the abundance fitness is -0.333 ± 0.13. As to M2Q, the abundance fitness is -0.134 ± 0.14. Take M2A: the abundance fitness was -0.192 ± 0.075. As to M2S, the abundance fitness was -0.009 ± 0.077. With M2W the figure was -0.657 ± 0.13; with C9Y, -0.802 ± 0.099.

As to C9P, the abundance fitness is -0.905 ± 0.12.

Regarding C9R, the abundance fitness is -0.819 ± 0.083.

On to E8W, for which the abundance fitness is -0.178 ± 0.077. The figure for E8Y is -0.079 ± 0.15; for E8H it is 0.007 ± 0.089; for E58Q it is -0.252 ± 0.29. For the variant E58T, the abundance fitness was -0.037 ± 0.23.

In the case of E58C, the abundance fitness is -0.062 ± 0.16. With E58A the figure was -0.133 ± 0.085; with E58H, -0.304 ± 0.12; with A22V, -0.845 ± 0.069. The figure for A22D is -0.93 ± 0.13; for A22I it is -0.923 ± 0.36. With A22L, the abundance fitness was -0.857 ± 0.093.
